Assay results from paper PMC11975282.

B1: Apt1-Flag fusion protein, O75608 1-230 (enzyme)
chain: MCGNNMSTPLPAIVPAARKATAAVIFLHGLGDTGHGWAEAFAGIRSSHIKYICPHAPVRPVTLNMNVAMPSWFDIIGLSPDSQEDESGIKQAAENIKALIDQEVKNGIPSNRIILGGFSQGGALSLYTALTTQQKLAGVTALSCWLPLRASFPQGPIGGANRDISILQCHGDCDPLVPLMFGSLTVEKLKTLVNPANVTFKTYEGMMHSSCQQEMMDVKQFIDKLLPPID
B2: Apt2-Flag fusion protein, O95372 1-231 (enzyme)
chain: MCGNTMSVPLLTDAATVSGAERETAAVIFLHGLGDTGHSWADALSTIRLPHVKYICPHAPRIPVTLNMKMVMPSWFDLMGLSPDAPEDEAGIKKAAENIKALIEHEMKNGIPANRIVLGGFSQGGALSLYTALTCPHPLAGIVALSCWLPLHRAFPQAANGSAKDLAILQCHGELDPMVPVRFGALTAEKLRSVVTPARVQFKTYPGVMHSSCPQEMAAVKEFLEKLLPPV

Experiments:
[1] = target: Apt1-Flag fusion protein (human), O75608; assay: native gel or EMSA; conditions: remark: other sources report otherwise
[2] = target: Apt2-Flag fusion protein (human), O95372; assay: native gel or EMSA; conditions: remark: other sources report otherwise

Binder | stoichiometry N [1] | stoichiometry N [2]
B1 | 2 | 
B2 |  | 2
